Target: T1, StrepHP1021 (HP1021) (Helicobacter pylori 26695) (UniProt O25665)
T1 sequence: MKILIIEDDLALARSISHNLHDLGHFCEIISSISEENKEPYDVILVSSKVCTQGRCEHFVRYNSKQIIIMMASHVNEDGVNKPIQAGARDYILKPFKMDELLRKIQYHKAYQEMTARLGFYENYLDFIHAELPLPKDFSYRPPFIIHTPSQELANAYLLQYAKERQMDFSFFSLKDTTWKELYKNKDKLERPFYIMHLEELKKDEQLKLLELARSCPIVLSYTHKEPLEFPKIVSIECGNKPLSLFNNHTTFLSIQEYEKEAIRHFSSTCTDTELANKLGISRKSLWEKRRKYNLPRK
Test: EMSA
Conditions: EMSA: 50 mM Tris-HCl pH 8.0, 100 mM NaCl, 0.2% Triton X-100, 5 nM DNA, 37 C 20 min; 4% PAGE in 0.5x TBE or TB at 20-25 C. SPR: 50 mM Tris-HCl pH 8.0, 100 mM …

Row | Sequence | binding
1 | ATGATATTTATATGATATTTTTGGGTAATTTAAGATGAATATCGGTAGCGTTTTGAATAAATTTGTTACTACTTTTCACTTTATTACGCCAAATTTTCCCTTATTACAAACAACTTTGAAATAAATGATTTCCATTTAAAAATCAGCCTTATACTTCTAATAGGTTGCCTTGAGCAACACTTTAATACAAGGAGTCTAAATGAAAGACGCAAATTCGAAGCTATTCTTACTCC (double strand) [phyuA] | binds
2 | GGAGTAAGAATAGCTTCGAATCTCTATTTTGAAAACCCCTATTTCAGGCTTTTGAGTTTTTTAGGCTCTAGTTTTATCCACCCCTTTGGATTTGATTGGTTAGTCCCAGATAGCTTTTTTTCTTATAGCGTGTTTAGAGTGGATAAATTATCGCTAGGGCTTGTTTTTTTGGCTTGCATTTTTTTGAGCACTAAACCATTGAAAAAATATAG (double strand) [FAM-HP0180 fragment] | binds more weakly
